Assay results from patent US20050255553A1 (LUDWIG INSTITUTE FOR CANCER RESEARCH, published 2005).

B1: MAGE-C2 nonapeptide SESIKKKVL (SEQ ID NO: 107) (peptide)
peptide: SESIKKKVL
notes: Synthetic peptide; also called MAGE.C2 antigenic peptide

Experiments:
HLA-B44 (HLA-B*4403) [1] = molecular target: T1, HLA-B44 (HLA-B*4403) (human); assay: concluded from lysis of peptide-pulsed BAGM-EBV cells and TNF assays with HLA-B44 transfectants; no direct binding assay
T1 construct: whole, on cells; MHC class I molecule on BAGM-EBV cells or transfected COS-7 cells

HLA-B44 (HLA-B*4403) [2] = molecular target: T1, HLA-B44 (HLA-B*4403); assay: lysis of peptide-pulsed BAGM-EBV cells by TIL 2.4
Procedure: FIG. 4 depicts the lysis of BAGM-EBV cells pulsed with the MAGE.C2.B44 peptides. […] TIL2.4 was added at a ratio of 15:1. The chromium release was measured after 4 hours. The nonapeptide (-▪-) is the antigenic sequence recognized by the TIL.
To identify the antigenic peptide, several minigenes were generated by amplifying different fragments of the MAGE-C2 cDNA by PCR. The PCR products were cloned into plasmid vector pCDNA3.1/His by TOPO T/A cloning (MAGE-C2/HLA-A2 patent and Ma W et al., Int. J. Cancer: in press, incorporated herein by reference). COS-7 cells were transfected with vectors encoding HLA-B44 and vectors encoding the different minigenes described above. TIL 2.4 were added to the transfected cells and TNF production was measured (FIG. 3X). […] Candidate peptides bearing the binding motif for HLA-B44 were then synthesized and pulsed onto BAGM-EBV cells. These pulsed cells were combined with TIL2.4 and assayed for lysis. […] The nonapeptide and the decapeptide were then synthesized and assayed individually.

Binder | binding result (HLA-B44 (HLA-B*4403) [1]) | binding result (HLA-B44 (HLA-B*4403) [2])
B1 | binds | –
SESIKKKVLEF (Synthetic peptide) [MAGE-C2 11-mer peptide SESIKKKVLEF (SEQ ID NO: 106)] | – | binds
